Reference: PMC3539977, “Plant Coilin: Structural Characteristics and RNA-Binding Properties” (PLoS ONE, 2013)

Key:
[1] = test system: NOD (Arabidopsis thaliana); test: EMSA; details: apparent; EMSA: 20 mM Tris-HCl pH 7.5, 1 mM DTT, 3 mM MgCl2, 50 mM NaCl, on ice 15 min; 0.1 ug RNA, 2% Tris-acetate agarose gel
[2] = test system: IDD-212-350-NLS2 (Arabidopsis thaliana); test: EMSA; details: apparent; EMSA: 20 mM Tris-HCl pH 7.5, 1 mM DTT, 3 mM MgCl2, 50 mM NaCl, on ice 15 min; 0.1 ug RNA, 2% Tris-acetate agarose gel
[3] = test system: IDD-118-212 (Arabidopsis thaliana); test: EMSA; details: apparent; EMSA: 20 mM Tris-HCl pH 7.5, 1 mM DTT, 3 mM MgCl2, 50 mM NaCl, on ice 15 min; 0.1 ug RNA, 2% Tris-acetate agarose gel
[4] = test system: Co-86-608 (Arabidopsis thaliana); test: EMSA; details: apparent; RNA taken as U1 snRNA; EMSA: 20 mM Tris-HCl pH 7.5, 1 mM DTT, 3 mM MgCl2, 50 mM NaCl, on ice 15 min; 0.1 ug RNA, 2% Tris-acetate agarose gel
[5] = test system: IDD (Arabidopsis thaliana); test: EMSA; details: apparent; EMSA: 20 mM Tris-HCl pH 7.5, 1 mM DTT, 3 mM MgCl2, 50 mM NaCl, on ice 15 min; 0.1 ug RNA, 2% Tris-acetate agarose gel
[6] = test system: NOD-RK1 (Arabidopsis thaliana); test: EMSA; details: apparent; EMSA: 20 mM Tris-HCl pH 7.5, 1 mM DTT, 3 mM MgCl2, 50 mM NaCl, on ice 15 min; 0.1 ug RNA, 2% Tris-acetate agarose gel
[7] = test system: IDD-212-350 (Arabidopsis thaliana); test: EMSA; details: apparent; EMSA: 20 mM Tris-HCl pH 7.5, 1 mM DTT, 3 mM MgCl2, 50 mM NaCl, on ice 15 min; 0.1 ug RNA, 2% Tris-acetate agarose gel
[8] = biological target: the molecule itself; test: dynamic light scattering; protein at 0.05 mg/ml in 1 mM phosphate buffer pH 7.5, Zetasizer Nano ZS; free protein, and with U1 snRNA at a protein:RNA molar ratio of 5:1

U1 snRNA
Kd [1]: 0.76 µM
Kd [2]: 0.48 µM
Kd [3]: 1.42 µM
Kd [4]: 0.04 µM
Kd [5]: 0.04 µM
Kd [6]: 2.25 µM
Kd [7]: 0.06 µM

B1: Arabidopsis thaliana coilin (Atcoilin), wild type (natural protein, UniProt Q8RWK8 1-608, looked up)
chain: MEEEKVRVRLVFEDRRILSKYQKKQGLTRSWVVLNRKCHRTISEFSDHIFHTFSLCEACPHGLSLSMEGFVLPPFESSCVLKDKDIVCVKKKKESLLEIVGEDSDENVYNAIEVEERPQIRPGEMLLANEEFQKETGGYESESEEDELEEEAEEFVPEKKASKKRKTSSKNQSTKRKKCKLDTTEESPDERENTAVVSNVVKKKKKKKSLDVQSANNDEQNNDSTKPMTKSKRSSQQEESKEHNDLCQLSAETKKTPSRSARRKKAKRQWLREKTKLEKEELLQTQLVVAPSQKPVITIDHQATKEKHCETLENQQAEEVSDGFGDEVVPVEVRPGHIRFKPLAGTDEASLDSEPLVENVLWNGNMTKKKGQKWGTEKSGFSKRYAQDFNEDATTQPAEAETLANCPIDYEQLVAYTGSVKKGDVIAYRLIELTSSWTPEVSSFRVGKISYYDPDSKMVTLMPVQEFPIEKKTEEDDDFCMQPDTSLYKEDGSLEIEFSALLDVRSVKTSSSDSAEVAKSALPEPDQSAKKPKLSANKELQTPAKENGEVSPWEELSEALSAKKAALSQANNGWNKKGSSSGGSWSYKALRGSAMGPVMNYLRSQKEI
notes: coilin of Arabidopsis thaliana, a 608-amino acid protein (NM_101173.4; GI:42562030); Cloned into the PQE30 vector; forms oligomers larger than a decamer in solution by DLS; also called wt coilin; wt Atcoilin; source: E. coli JM109, purified under denaturing conditions (Ni-NTA agarose), renatured by dialysis
stoichiometry N [8]: > 10

B2: Atcoilin N-terminal ordered domain (NOD), residues 1-117 (domain or fragment, Arabidopsis thaliana, UniProt Q8RWK8 1-117, looked up)
chain: MEEEKVRVRLVFEDRRILSKYQKKQGLTRSWVVLNRKCHRTISEFSDHIFHTFSLCEACPHGLSLSMEGFVLPPFESSCVLKDKDIVCVKKKKESLLEIVGEDSDENVYNAIEVEER
notes: coilin of Arabidopsis thaliana (NM_101173.4; GI:42562030), NOD, 1-117 aa residues; also called N-terminal domain; source: E. coli JM109, purified under denaturing conditions (Ni-NTA agarose), renatured by dialysis
binding result [8]: binds
